Test results published in patent US20150239980A1 (NEOTOPE BOSCIENCES, published 2015).
Substitutions are numbered along the chain they refer to.

T1: recombinant hMCAM-His (human, UniProt P43121 24-559)
T1 construct: not shown: His tag
T1 chain: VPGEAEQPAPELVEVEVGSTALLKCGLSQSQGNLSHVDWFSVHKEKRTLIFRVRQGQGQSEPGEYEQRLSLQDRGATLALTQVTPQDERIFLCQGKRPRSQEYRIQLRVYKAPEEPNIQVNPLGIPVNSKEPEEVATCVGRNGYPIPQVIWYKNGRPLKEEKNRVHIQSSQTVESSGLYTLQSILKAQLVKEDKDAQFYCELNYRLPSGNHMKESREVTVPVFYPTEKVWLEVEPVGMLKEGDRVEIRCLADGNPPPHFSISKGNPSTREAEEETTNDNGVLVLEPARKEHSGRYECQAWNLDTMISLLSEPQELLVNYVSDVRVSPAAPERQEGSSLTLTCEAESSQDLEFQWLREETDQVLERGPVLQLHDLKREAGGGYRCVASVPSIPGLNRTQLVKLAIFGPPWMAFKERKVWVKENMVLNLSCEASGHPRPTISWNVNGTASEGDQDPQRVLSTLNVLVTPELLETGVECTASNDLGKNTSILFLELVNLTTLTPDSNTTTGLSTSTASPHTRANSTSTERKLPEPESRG

T2: human MCAM (melanoma cell adhesion molecule) expressed on transfected CHO cells (human, UniProt P43121 24-646)
T2 construct: also called hMCAM; CD146
T2 chain: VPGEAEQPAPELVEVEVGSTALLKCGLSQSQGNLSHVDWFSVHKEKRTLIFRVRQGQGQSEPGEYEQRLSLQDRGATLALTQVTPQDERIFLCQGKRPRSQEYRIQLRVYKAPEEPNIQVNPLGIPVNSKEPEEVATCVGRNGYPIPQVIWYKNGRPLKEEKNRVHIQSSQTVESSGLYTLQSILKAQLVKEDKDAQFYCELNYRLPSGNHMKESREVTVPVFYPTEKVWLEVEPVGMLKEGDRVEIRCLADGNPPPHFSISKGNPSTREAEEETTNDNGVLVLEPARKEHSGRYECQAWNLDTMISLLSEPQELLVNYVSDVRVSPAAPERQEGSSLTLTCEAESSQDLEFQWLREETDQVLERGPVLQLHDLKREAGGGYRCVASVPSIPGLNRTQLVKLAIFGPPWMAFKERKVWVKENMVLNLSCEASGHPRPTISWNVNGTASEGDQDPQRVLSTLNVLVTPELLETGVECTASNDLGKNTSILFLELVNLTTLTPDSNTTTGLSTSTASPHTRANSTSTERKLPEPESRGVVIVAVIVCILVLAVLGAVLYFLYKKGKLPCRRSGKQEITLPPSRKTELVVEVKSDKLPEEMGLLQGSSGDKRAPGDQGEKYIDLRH

B1: h2120_VH1 + h2120_VL1 (antibody, human IgG1, V domains shown)
VH: QVTLKESGPVLVKPTETLTLTCTVSGFSLTSNGVSWVRQPPGKALEWIAAISSGGTTYYNSAFKSRLTISRDTSKSQVVLTMTNMDPVDTATYYCARRYGYGWYFDFWGQGTLVTVSS
VL: DIQMTQSPSSLSASVGDRVTITCKASQNIYNSLAWYQQKPGKAPKVLIFNANSLQTGIPSRFSGSGSGTDFTLTISSLQPEDFATYYCQQFYSGYTFGQGTKLEIK
B2: h2120_VH1 + h2120_VL2 (antibody, human IgG1, V domains shown)
VH: B1 VH
VL: B1 VL with I58V
B3: h2120_VH4 + h2120_VL3 (antibody, human IgG1, V domains shown)
VH: B1 VH with N32Q
VL: B1 VL with T22N
B4: h2107_VH4 + h2107_VL2 (antibody, human IgG1, V domains shown)
VH: QVTLKESGPVLVKPTETLTLTCTVSGFSLTSSGVSWVRQPPGKALEWIAAISSGGSTYYNSAFKSRLTISPDTSKSQVVLTMTNMDPVDTATYYCARHRPFYFDYWGQGTLVTVSS
VL: DIQMTQSPSSLSASVGDRVTITCKGSQNIYKSLAWFQLKPGKVPKLLIYDANSLQTGIPSRFSGSGSGTDFTLTISSLQPEDVATYYCQQYYSGYTFGGGTKVEIK
B5: h2107_VH1 + h2107_VL1 (antibody, human IgG1, V domains shown)
VH: B4 VH with S32N, P71R
VL: B4 VL with L38Q
B6: h2107_VH6 + h2107_VL1 (antibody, human IgG1, V domains shown)
VH: B4 VH with S32N, G33A, P71R
VL: B4 VL with L38Q
B7: h2107_VH5 + h2107_VL2 (antibody, human IgG1, V domains shown)
VH: B4 VH with S32Q
VL: B4 VL
B8: h2107_VH5 + h2107_VL1 (antibody, human IgG1, V domains shown)
VH: B4 VH with S32Q
VL: B4 VL with L38Q
B9: h2107_VH5 + h2107_VL3 (antibody, human IgG1, V domains shown)
VH: B4 VH with S32Q
VL: B4 VL with T22N, L38Q
B10: h2107_VH6 + h2107_VL2 (antibody, human IgG1, V domains shown)
VH: B4 VH with S32N, G33A, P71R
VL: B4 VL
B11: h2107_VH1 + h2107_VL3 (antibody, human IgG1, V domains shown)
VH: B4 VH with S32N, P71R
VL: B4 VL with T22N, L38Q
B12: h2107_VH6 + h2107_VL3 (antibody, human IgG1, V domains shown)
VH: B4 VH with S32N, G33A, P71R
VL: B4 VL with T22N, L38Q
B13: chimeric 1749 TM (antibody, V domains shown)
VH: DVKLVESGGDLVKPGGSLKLSCAASGFTFSSYIMSWVRQTPEKRLEWVATISSGGSSTYYPDSVKGRFTISRDNAKNTLYLQMSSLKSEDTAMYYCTRDDDYDVKVFAYWGQGTLVTVSA
VL: DIVMSQSPSSLAVSAGEKVTMNCKSSRSLLNSRIRKNYLAWYQQKPGQSPKLLIYWASTRESGVPDRFTGSGSGTDFTLTISSVQAEDLAVYYCKQSYNLLTFGAGTKLELK

Target: T1, recombinant hMCAM-His
Test: summary of ForteBio, hMCAM-His; vs rodent 2120
Protocol: (§1) The affinities were measured using the ForteBio Octet Red. Anti-human Fc sensors were used to capture the humanized antibodies, and several concentrations of hMCAMHis analyte were used to determine the affinity using a 1:1 fitting model.

| fold reduction in affinity as measured by ForteBio | Binder |
| --- | --- |
| > 5 fold | B1 |
| > 5 fold | B2 |
| > 5 fold | B3 |

Target: T1, recombinant hMCAM-His
Test: ForteBio Octet Red, hMCAM-His analyte; Expt. #1; vs rodent 2107
Protocol: as §1

| fold over rodent (Forte affinity) | Binder |
| --- | --- |
| 5.59 fold | B4 |

Target: T1, recombinant hMCAM-His
Test: ForteBio Octet Red, hMCAM-His analyte; Forte column 1; vs rodent 2107
Protocol: as §1

| fold over rodent (Forte affinity) | Binder |
| --- | --- |
| 12.9 fold | B5 |
| 36.8 fold | B6 |
| 5.9 fold | B7 |
| 28.2 fold | B8 |
| 33.2 fold | B9 |
| 5.2 fold | B10 |
| 16.3 fold | B11 |
| 22.1 fold | B12 |

Target: T1, recombinant hMCAM-His
Test: ForteBio Octet Red, hMCAM-His analyte; Forte column 1; vs rodent 2120
Protocol: as §1

| fold over rodent (Forte affinity) | Binder |
| --- | --- |
| 8.8 fold | B1 |
| 10.8 fold | B2 |
| 17.4 fold | B3 |

Target: T1, recombinant hMCAM-His
Test: ForteBio Octet Red, hMCAM-His analyte; Forte column 2; vs rodent 2107
Protocol: as §1

| fold over rodent (Forte affinity) | Binder |
| --- | --- |
| 6 fold | B7 |
| 5.5 fold | B10 |

Target: T2, human MCAM (melanoma cell adhesion …)
Test: laminin/FACS on hMCAM CHO cells, competitor laminin 411; Expt#1; vs rodent 2107
Protocol: (§2) Following incubation for 30-45 minutes, the cells were washed and anti-laminin conjugated to AF650 (NovusBio) was added to detect the bound laminin. The cells were run on a flow cytometer to measure the laminin binding signal.

| fold over rodent (blocking, laminin/FACS) | Binder |
| --- | --- |
| 2.3 fold | B5 |
| 1.6 fold | B7 |
| 4.8 fold | B10 |
| 2.6 fold | B11 |

Target: T2, human MCAM (melanoma cell adhesion …)
Test: laminin/FACS on hMCAM CHO cells, competitor laminin 411; Expt#1; vs rodent 2120
Protocol: as §2

| fold over rodent (blocking, laminin/FACS) | Binder |
| --- | --- |
| 2 fold | B1 |
| 4.6 fold | B2 |
| 3.8 fold | B3 |

Target: T2, human MCAM (melanoma cell adhesion …)
Test: laminin/FACS on hMCAM CHO cells, competitor laminin 411; Expt#2; vs rodent 2120
Protocol: as §2

| fold over rodent (blocking, laminin/FACS) | Binder |
| --- | --- |
| 3.5 fold | B1 |
| 12.6 fold | B2 |
| 5.6 fold | B3 |

Target: T1, recombinant hMCAM-His
Test: competitive ELISA on hMCAM-His, competitor biotinylated rodent or chimeric 2107; vs rodent 2107
Protocol: (§3) ELISA plates were coated with recombinant hMCAM-His, and blocked with casein buffer to prevent non-specific binding. Biotinylated rodent or chimeric antibody was added at a subsaturating concentration, in the presence or absence of 3× increasing concentrations of unlabeled competitor (humanized antibody, rodent, or chimeric). After washing to remove unbound antibody, streptavidin HRP was added to allow detection of the biotinylated antibody. The ELISA was developed with TMB substrate and the OD450 was measured. The IC50 of the unlabeled competitor was determined using the GraphPad Prism5 software.

| fold over rodent (competitive ELISA) | Binder |
| --- | --- |
| 2.1 fold | B5 |
| 15.3 fold | B6 |
| 1.3 fold | B7 |
| 3.7 fold | B8 |
| 3.4 fold | B9 |
| 3.5 fold | B10 |
| 2.3 fold | B11 |
| 9.9 fold | B12 |

Target: T1, recombinant hMCAM-His
Test: competitive ELISA on hMCAM-His, competitor biotinylated rodent or chimeric 2120; vs rodent 2120
Protocol: as §3

| fold over rodent (competitive ELISA) | Binder |
| --- | --- |
| 3.1 fold | B1 |
| 3.1 fold | B2 |
| 5 fold | B3 |

Target: T2, human MCAM (melanoma cell adhesion …)
Test: laminin/FACS on hMCAM CHO cells, competitor laminin 411; Expt#2; reference row with 1.0 is chimeric 2107
Protocol: as §2

| fold over rodent (blocking, laminin/FACS) | Binder |
| --- | --- |
| 2.1 fold | B5 |
| 1.5 fold | B7 |
| 2.3 fold | B10 |
| 2 fold | B11 |

Target: T1, recombinant hMCAM-His
Test: competitive ELISA on hMCAM-His, competitor biotinylated rodent or chimeric 1749; Expt. #2; vs rodent 1749
Protocol: as §3

| fold over rodent (competitive ELISA) | Binder |
| --- | --- |
| 1.07 fold | B13 |

Target: T1, recombinant hMCAM-His
Test: competitive ELISA on hMCAM-His, competitor biotinylated rodent or chimeric 2107; Expt. #1; vs rodent 2107
Protocol: as §3

| fold over rodent (competitive ELISA) | Binder |
| --- | --- |
| 11.7 fold | B4 |
